Source: patent publication US20100166741A1 (Genentech, published 2010)
Residue numbers refer to the chain shown, from its start. In names and notes the source's numbering stands. One block for each binder: values may come before it.

How the values were obtained:
[1] = biological target: T1, human FcγRIII (CD16) on NK cells (human, UniProt P08637 17-254); test: cell-based or functional assay
[2] = biological target: T2, human FcγRIIa extracellular domain, His-tagged GST fusion (human, UniProt P12318 34-217); test: ELISA, captured FcγR-GST;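 also: antibody variants applied as dilution series to receptor wells, with retained antibody read out via an HRP-linked goat F(ab′)2 fragment recognizing human Fab′2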
T2 construct: extracellular domain; also called hFcgRIIa; CD32A; not shown: C-terminal Gly/His6/GST tag
T2 sequence (looked up): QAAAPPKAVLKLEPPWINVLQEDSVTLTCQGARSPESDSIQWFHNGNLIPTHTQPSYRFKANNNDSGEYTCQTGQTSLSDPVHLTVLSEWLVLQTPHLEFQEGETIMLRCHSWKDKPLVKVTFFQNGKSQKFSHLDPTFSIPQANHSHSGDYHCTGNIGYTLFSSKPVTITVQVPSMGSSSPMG

[3] = biological target: T3, human FcγRIIb extracellular domain, His-tagged GST fusion (human, UniProt P31994 43-217); test: ELISA, captured FcγR-GST;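 also: antibody variants applied as dilution series to receptor wells, with retained antibody read out via an HRP-linked goat F(ab′)2 fragment recognizing human Fab′2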
T3 construct: extracellular domain; also called hFcgRIIb; CD32B; not shown: C-terminal Gly/His6/GST tag
T3 sequence (looked up): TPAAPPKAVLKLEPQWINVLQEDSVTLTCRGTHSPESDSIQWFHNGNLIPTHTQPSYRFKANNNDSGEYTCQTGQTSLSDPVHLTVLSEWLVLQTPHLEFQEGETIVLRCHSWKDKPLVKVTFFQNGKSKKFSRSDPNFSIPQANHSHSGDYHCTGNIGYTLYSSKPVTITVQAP

[4] = biological target: T4, mouse FcγRIII extracellular domain, His-tagged GST fusion (mouse, UniProt P08508 31-215); test: ELISA, captured FcγR-GST;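 also: antibody variants applied as dilution series to receptor wells, with retained antibody read out via an HRP-linked goat F(ab′)2 fragment recognizing human Fab′2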
T4 construct: extracellular domain; also called Mouse III; not shown: His tag and GST
T4 sequence (looked up): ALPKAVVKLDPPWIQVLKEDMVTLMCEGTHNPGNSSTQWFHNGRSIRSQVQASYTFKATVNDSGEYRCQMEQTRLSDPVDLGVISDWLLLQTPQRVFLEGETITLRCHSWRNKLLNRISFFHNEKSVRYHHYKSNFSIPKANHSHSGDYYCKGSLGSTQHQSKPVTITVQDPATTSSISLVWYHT

[5] = biological target: T5, mouse FcγRI extracellular domain, His-tagged GST fusion (mouse, UniProt P26151 25-297); test: ELISA, captured FcγR-GST;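 also: antibody variants applied as dilution series to receptor wells, with retained antibody read out via an HRP-linked goat F(ab′)2 fragment recognizing human Fab′2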
T5 construct: extracellular domain; also called Mouse I; mFcγRI; not shown: His tag and GST
T5 sequence (looked up): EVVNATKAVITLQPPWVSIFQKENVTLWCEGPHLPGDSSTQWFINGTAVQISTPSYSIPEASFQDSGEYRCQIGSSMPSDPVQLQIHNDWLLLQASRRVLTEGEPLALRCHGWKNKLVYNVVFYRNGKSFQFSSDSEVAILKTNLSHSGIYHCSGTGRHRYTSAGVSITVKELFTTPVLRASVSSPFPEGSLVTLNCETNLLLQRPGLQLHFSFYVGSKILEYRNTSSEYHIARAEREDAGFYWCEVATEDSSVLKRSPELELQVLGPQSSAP

[6] = biological target: T6, mouse FcγRII extracellular domain, His-tagged GST fusion (mouse, UniProt P08101 30-210); test: ELISA, captured FcγR-GST
T6 construct: extracellular domain; also called Mouse II; not shown: His tag and GST
T6 sequence (looked up): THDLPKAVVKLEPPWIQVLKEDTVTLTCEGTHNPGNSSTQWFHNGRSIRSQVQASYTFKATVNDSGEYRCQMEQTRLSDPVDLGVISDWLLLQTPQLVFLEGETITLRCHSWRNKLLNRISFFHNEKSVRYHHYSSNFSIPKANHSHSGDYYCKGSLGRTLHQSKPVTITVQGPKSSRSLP

[7] = biological target: T7, human FcγRI extracellular domain, His-tagged GST fusion (human, UniProt P12314 16-292); test: ELISA, captured FcγR-GST
T7 construct: extracellular domain; also called hFcgRI; FcγRIA; not shown: C-terminal Gly/His6/GST tag

[8] = biological target: T3, human FcγRIIb extracellular domain, …; test: Fcγ receptor ELISA; bar = fold increase in binding over Herceptin, log axis 0.1-1000
[9] = biological target: T7, human FcγRI extracellular domain, …; test: as above
[10] = biological target: T1, human FcγRIII (CD16) on NK cells; test: cell-based or functional assay; remark: listed apart in the source
[11] = biological target: T2, human FcγRIIa extracellular domain, …; test: ELISA, FcγR-His-GST captured by anti-GST, complexed IgG
Protocol: (§1) MaxiSorp 96-well microwell plates (Nunc, Roskilde, Denmark) were coated with 2 μg/ml anti-GST (clone 8E2.1.1, Genentech), at 100 μl/well in 50 mM carbonate buffer, pH 9.6, at 4° C. overnight. Plates were washed with PBS containing 0.05% polysorbate, pH 7.4 (wash buffer) and blocked with PBS containing 0.5% BSA, pH 7.4, at 150 μl/well. After an hour incubation at room temperature, plates were washed with wash buffer. […] The plates were incubated for one hour and washed with wash buffer. For low affinity Fcγ receptors IIa, IIb, III (F158) and high affinity III (V158), antibodies were incubated with goat F(ab′)₂ anti-κ (Cappel, ICN Pharmaceuticals, Inc., Aurora, Ohio) or anti-λ. (BioSource, Camarillo, Calif.) antibody at a 1:2 (w/w) ratio for 1 hour to form antibody complexes. […] After a two-hour incubation, plates were washed with wash buffer. Bound IgG was detected by adding peroxidase labeled goat F(ab′)₂ anti-human IgG F(ab′)₂ (Jackson ImmunoResearch, West Grove, Pa.) at 100 μl/well in assay buffer. After a one-hour incubation, plates were washed with wash buffer and the substrate 3,3′,5,5′-tetramethyl benzidine (TMB) (Kirkegaard & Perry Laboratories) was added at 100 μl/well. The reaction was stopped by adding 1 M phosphoric acid at 100 μl/well. Absorbance was read at 450 nm on a multiskan Ascent reader (Thermo Labsystems, Helsinki, Finland).
(§2) The absorbance at the midpoint of the standard curve (mid-OD vs. ng/ml) was calculated. The corresponding concentrations of standard and samples at this mid-OD were determined from the titration curves using a four-parameter nonlinear regression curve-fitting program (KaleidaGraph, Synergy software, Reading, Pa.). The relative activity was calculated by dividing the mid-OD concentration of standard by that of sample.

[12] = biological target: T3, human FcγRIIb extracellular domain, …; test: as above
Protocol: as §1, §2

[13] = biological target: T7, human FcγRI extracellular domain, …; test: ELISA, FcγR-His-GST captured by anti-GST
Protocol: as §1, §2

B1: 9.1(5) (antibody, human IgG1, kappa)
heavy: EVQLVESGGGLVQPGGSLRLSCAASGFTVTAYYMSWVRQAPGKGLEWVGFIRDKANGYTTEYNPSVKGRFTISRDTSKNTFYLQMNSLRAEDTAVYYCAQVRRALDYWGQGTLVTVSSASTKGPSVFPLAPSSKSTSGGTAALGCLVKDYFPEPVTVSWNSGALTSGVHTFPAVLQSSGLYSLSSVVTVPSSSLGTQTYICNVNHKPSNTKVDKKVEPKSCDKTHTCPPCPAPELLGGPSVFLFPPKPKDTLMISRTPEVTCVVVDVSHEDPEVKFNWYVDGVEVHNAKTKPREEQYNATYRVVSVLTVLHQDWLNGKEYKCKVSNAALPAPIAATISKAKGQPREPQVYTLPPSREEMTKNQVSLTCLVKGFYPSDIAVEWESNGQPENNYKTTPPVLDSDGSFFLYSKLTVDKSRWQQGNVFSCSVMHEALHNHYTQKSLSLSPG
light: DIQMTQSPSSLSASVGDRVTITCKSSQSLLYSSNQNNYLAWYQQKPGKAPKLLIYWASTRESGVPSRFSGSGSGTDFTLTISSLQPEDFATYYCQQYYTYPYTFGQGTKVEIKRTVAAPSVFIFPPSDEQLKSGTASVVCLLNNFYPREAKVQWKVDNALQSGNSQESVTEQDSKDSTYSLSSTLTLSKADYEKHKVYACEVTHQGLSSPVTKSFNRGEC
notes: Fc variant of 9.1RF, expressed in CHO; also called 9.1RF S298A/K326A/E333A/K334A
ADCC on BJAB cells with NK cells, relative fold increase compared to 9.1RF [1]: 3 fold | fold improvement in binding vs Herceptin (EC50herceptin/EC50sample) [2]: 0.2 fold | fold improvement in binding vs Herceptin (EC50herceptin/EC50sample) [3]: 0.7 fold | fold improvement in binding vs Herceptin (EC50herceptin/EC50sample) [4]: 1.2 fold | fold improvement in binding vs Herceptin (EC50herceptin/EC50sample) [5]: 1.9 fold | fold improvement in binding vs Herceptin (EC50herceptin/EC50sample) [6]: 1.3 fold | fold improvement in binding vs Herceptin (EC50herceptin/EC50sample) [7]: 0.6 fold

B2: 9.1(8) (antibody, human IgG1, kappa)
heavy: B1 heavy with S240D, A327K, I333E, A334E, A335K
light: B1 light
notes: Fc variant of 9.1RF, expressed in CHO; also called 9.1RF 239D/298A/332E
ADCC on BJAB cells with NK cells, relative fold increase compared to 9.1RF [1]: 12 fold | fold improvement in binding vs Herceptin (EC50herceptin/EC50sample) [2]: 0.9 fold | fold improvement in binding vs Herceptin (EC50herceptin/EC50sample) [3]: 3.5 fold | fold improvement in binding vs Herceptin (EC50herceptin/EC50sample) [4]: 4 fold | fold improvement in binding vs Herceptin (EC50herceptin/EC50sample) [5]: 24 fold | fold improvement in binding vs Herceptin (EC50herceptin/EC50sample) [6]: 7.6 fold | fold improvement in binding vs Herceptin (EC50herceptin/EC50sample) [7]: 0.7 fold

B4: 9.1(7) (antibody, human IgG1, kappa)
heavy: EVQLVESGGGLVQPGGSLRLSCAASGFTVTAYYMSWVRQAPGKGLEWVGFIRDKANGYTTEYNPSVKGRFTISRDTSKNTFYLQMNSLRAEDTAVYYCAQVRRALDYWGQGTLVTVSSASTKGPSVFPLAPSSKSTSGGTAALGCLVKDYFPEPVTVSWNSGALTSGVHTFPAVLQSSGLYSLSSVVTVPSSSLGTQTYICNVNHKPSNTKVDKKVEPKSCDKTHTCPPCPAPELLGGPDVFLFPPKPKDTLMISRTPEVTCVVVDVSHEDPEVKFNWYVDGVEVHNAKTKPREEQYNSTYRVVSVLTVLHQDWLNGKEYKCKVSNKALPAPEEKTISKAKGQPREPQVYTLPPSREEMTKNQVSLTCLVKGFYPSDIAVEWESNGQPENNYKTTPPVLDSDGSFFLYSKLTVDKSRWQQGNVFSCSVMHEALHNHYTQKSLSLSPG
light: B1 light
notes: Fc variant of 9.1RF, expressed in CHO; also called 9.1RF 239D/332E
ADCC on BJAB cells with NK cells, relative fold increase compared to 9.1RF [1]: 7 fold | fold improvement in binding vs Herceptin (EC50herceptin/EC50sample) [2]: 5.3 fold | fold improvement in binding vs Herceptin (EC50herceptin/EC50sample) [3]: 17 fold | fold improvement in binding vs Herceptin (EC50herceptin/EC50sample) [4]: 9.9 fold | fold improvement in binding vs Herceptin (EC50herceptin/EC50sample) [5]: 62 fold | fold improvement in binding vs Herceptin (EC50herceptin/EC50sample) [6]: 19 fold | fold improvement in binding vs Herceptin (EC50herceptin/EC50sample) [7]: 0.7 fold

B6: 9.1(6) (antibody, human IgG1, kappa)
heavy: B1 heavy with A327K
light: B1 light
notes: Fc variant of 9.1RF, expressed in CHO; also called 9.1RF S298A/E333A/K334A
ADCC on BJAB cells with NK cells, relative fold increase compared to 9.1RF [1]: 3 fold | ADCC on BJAB cells with NK cells, relative EC50 values against 9.1RF [10]: 2.8 fold | fold improvement in binding vs Herceptin (EC50herceptin/EC50sample) [2]: 0.2 fold | fold improvement in binding vs Herceptin (EC50herceptin/EC50sample) [3]: 0.4 fold | fold improvement in binding vs Herceptin (EC50herceptin/EC50sample) [4]: 0.6 fold | fold improvement in binding vs Herceptin (EC50herceptin/EC50sample) [5]: 2.5 fold | fold improvement in binding vs Herceptin (EC50herceptin/EC50sample) [6]: 0.4 fold | fold improvement in binding vs Herceptin (EC50herceptin/EC50sample) [7]: 0.7 fold

Second part, the binder after the results:

ADCC on BJAB cells with NK cells, relative fold increase compared to 9.1RF [1]: 10 fold | binding result [8]: binds | binding result [9]: binds
B3: 9.1(10) (antibody, human IgG1, kappa)
heavy: B1 heavy with S240D, H269D, I333E, A334E, A335K
light: B1 light
notes: Fc variant of 9.1RF, expressed in 293 cells; also called 9.1RF 239D/268D/298A/326A/332E

ADCC on BJAB cells with NK cells, relative fold increase compared to 9.1RF [1]: 10 fold | binding result [8]: binds | binding result [9]: binds
B5: 9.1(9) (antibody, human IgG1, kappa)
heavy: B1 heavy with S240D, H269D, A327K, I333E, A334E, A335K
light: B1 light
notes: Fc variant of 9.1RF, expressed in 293 cells; also called 9.1RF 239D/268D/298A/332E

binding relative to 9.1-RF [11]: 0.66 | binding relative to 9.1-RF [12]: 0.45 | binding relative to 9.1-RF [13]: 0.97
B7: 9.1-RF N434A (antibody, human IgG1, kappa)
heavy: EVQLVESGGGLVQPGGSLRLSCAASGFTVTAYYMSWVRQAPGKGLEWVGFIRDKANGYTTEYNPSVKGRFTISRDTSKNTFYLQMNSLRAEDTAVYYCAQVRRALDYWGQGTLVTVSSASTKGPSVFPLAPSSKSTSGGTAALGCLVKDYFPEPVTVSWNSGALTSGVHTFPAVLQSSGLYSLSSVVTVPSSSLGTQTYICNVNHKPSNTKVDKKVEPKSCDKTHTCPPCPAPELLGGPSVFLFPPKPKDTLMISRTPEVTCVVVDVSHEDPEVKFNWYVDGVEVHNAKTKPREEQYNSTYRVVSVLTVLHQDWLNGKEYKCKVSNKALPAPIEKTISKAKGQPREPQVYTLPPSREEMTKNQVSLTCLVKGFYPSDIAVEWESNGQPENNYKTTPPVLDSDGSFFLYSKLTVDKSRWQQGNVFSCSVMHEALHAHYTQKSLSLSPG
light: B1 light
notes: also called 9.1RF-IgG (N434X), X = A

binding relative to 9.1-RF [11]: 0.64 | binding relative to 9.1-RF [12]: 0.4 | binding relative to 9.1-RF [13]: 1
B8: 9.1-RF N434W (antibody, human IgG1, kappa)
heavy: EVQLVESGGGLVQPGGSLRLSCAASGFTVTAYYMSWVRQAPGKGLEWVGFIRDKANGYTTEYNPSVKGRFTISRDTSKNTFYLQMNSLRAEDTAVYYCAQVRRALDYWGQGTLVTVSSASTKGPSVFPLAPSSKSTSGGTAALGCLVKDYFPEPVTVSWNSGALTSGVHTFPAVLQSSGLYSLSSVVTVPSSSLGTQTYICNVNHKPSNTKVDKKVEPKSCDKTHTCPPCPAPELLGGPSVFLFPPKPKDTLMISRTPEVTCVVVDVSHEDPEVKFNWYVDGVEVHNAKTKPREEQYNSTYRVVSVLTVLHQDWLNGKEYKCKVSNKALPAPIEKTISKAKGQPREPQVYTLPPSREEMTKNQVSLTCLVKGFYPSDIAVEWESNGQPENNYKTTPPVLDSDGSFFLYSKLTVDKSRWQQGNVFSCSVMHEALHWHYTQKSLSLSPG
light: B1 light
notes: also called Hu9.1RF IgG1 with an N434W mutation; Control (agonistic positive control)
